Substitutions are numbered along the chain they refer to.
B1: IgG1-AXL-148 (antibody, V domains shown)
VH: EVQLLESGGGLVQPGGSLRLSCAASGFTFSSYAMTWVRQAPGKGLEWVSAISISGGSTFYADSVKGRFTISRDNSKNTLYLQMNSLRAEDTAVYYCRGYSGYVYDAFDFWGQGTMVTVSS
VL: DIQMTQSPSSLSASVGDRVTITCRASQGISNWLAWYQQKPEKAPKSLIYAASSLQSGVPSRFSGSGSGTDFTLTISSLQPEDFATYYCQQYNSYPLTFGGGTKVEIK
B2: IgG1-AXL-726 (antibody, V domains shown)
VH: QVQLQQWGAGLLKPSETLSLTCAIDGGSFSGYYWSWIRQPPGKGLEWIGEISHSGRTNYNPSLKSRVTISIDTSKNQFSLKLSSVAAADTAVYYCARFITMIRGAIITHFDYWGQGALVTVSS
VL: B1 VL with N31S, N92H, L96Y, G100Q, V104L
B3: IgG1-AXL-733 (antibody, V domains shown)
VH: QVQLVESGGGVVQPGRSLRLSCAASGFSFSTYAMHWVRQAPGKGLEWVAVISYDGDNKYSADSVKGRFTISRDNSKNTLYLQMNSLRAEDTAVYYCARGRKLGIDAFDIWGQGTMVTVSS
VL: AIQLTQSPSSLSASVGDRVTITCRASQGISSALAWYQQKPGKAPKLLIYDASSLESGVPSRFSGSGSGTDFTLTISGLQPEDFATYYCQQFNSYPFTFGPGTKVDIK
B4: IgG1-AXL-183 (antibody, V domains shown)
VH: QVQLQQWGAGLLKPSETLSLTCAVYGGSFSGYYWSWIRQPPGKGLEWIGEINQSGSTNYNPSLKSRVTISVDTSKNQFSLKLSSVTAADTSVYYCASGNWDHFFDYWGQGTLVTVSS
VL: DIQMTQSPSSVSASVGDRVTITCRASQGISSWLAWYQHKPGKAPKLLIYATSSLQSGVTSRFSGSGSGTDFTLTISSLQPEDFATYYCQQAKSFPWTFGQGTKVEIK

Assays:
human AXL (full length) [1] = molecular target: T1, human AXL (full length) (human, UniProt P30530 26-894); test: flow cytometry, A431 cells pre-incubated with 10 µg/mL Gas6 (competitor)
T1 construct: also called TH1021-AXL; TH1021-hAXL

human AXL (full length) [2] = molecular target: T1, human AXL (full length); test: FMAT screening assay, HEK-293F cells transiently expressing human AXL
[3] = molecular target: T2, Homo sapiens AXL-Mus musculus Ig1 domain (p33-AXL-mIg1) (human-mouse chimera, UniProt P30530 8-894); test: flow cytometry, 1 µg/mL antibody, transfected HEK293F cells
T2 construct: Expressed in HEK293F cells; also called hsAXL-mmIg1; hsAXL-mmIgl
T2 chain: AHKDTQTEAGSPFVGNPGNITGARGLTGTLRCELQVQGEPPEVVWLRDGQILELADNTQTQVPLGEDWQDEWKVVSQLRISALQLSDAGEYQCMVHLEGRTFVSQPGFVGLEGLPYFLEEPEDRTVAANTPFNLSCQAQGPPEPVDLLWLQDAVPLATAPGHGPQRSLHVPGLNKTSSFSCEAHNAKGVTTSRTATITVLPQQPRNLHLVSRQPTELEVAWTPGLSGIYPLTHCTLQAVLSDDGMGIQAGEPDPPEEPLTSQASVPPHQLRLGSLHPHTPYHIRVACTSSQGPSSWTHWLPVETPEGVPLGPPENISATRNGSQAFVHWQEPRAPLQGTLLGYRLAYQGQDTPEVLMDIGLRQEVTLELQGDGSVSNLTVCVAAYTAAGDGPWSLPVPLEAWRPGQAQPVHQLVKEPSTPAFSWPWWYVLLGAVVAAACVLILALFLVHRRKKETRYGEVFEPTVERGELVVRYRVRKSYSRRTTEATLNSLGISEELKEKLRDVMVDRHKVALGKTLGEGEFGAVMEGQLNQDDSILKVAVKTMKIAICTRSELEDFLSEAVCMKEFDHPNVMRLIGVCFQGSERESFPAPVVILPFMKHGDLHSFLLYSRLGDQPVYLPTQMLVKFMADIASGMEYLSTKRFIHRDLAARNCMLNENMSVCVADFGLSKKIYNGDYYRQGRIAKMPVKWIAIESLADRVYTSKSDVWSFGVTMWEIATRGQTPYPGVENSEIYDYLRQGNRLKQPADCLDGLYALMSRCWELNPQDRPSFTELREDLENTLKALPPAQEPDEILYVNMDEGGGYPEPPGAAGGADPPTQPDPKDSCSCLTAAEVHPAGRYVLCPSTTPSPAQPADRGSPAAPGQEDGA

[4] = molecular target: T3, human AXL with a cynomolgus monkey extracellular domain (ECD) (cynomolgus monkey (Macaca …, UniProt P30530 26-894)); test: flow cytometry, HEK293T cells with human AXL carrying cynomolgus ECD
T3 construct: Chimera on transfected HEK293T cells; also called cynomolgus AXL; cynomolgus AXL-ECD
T3 chain: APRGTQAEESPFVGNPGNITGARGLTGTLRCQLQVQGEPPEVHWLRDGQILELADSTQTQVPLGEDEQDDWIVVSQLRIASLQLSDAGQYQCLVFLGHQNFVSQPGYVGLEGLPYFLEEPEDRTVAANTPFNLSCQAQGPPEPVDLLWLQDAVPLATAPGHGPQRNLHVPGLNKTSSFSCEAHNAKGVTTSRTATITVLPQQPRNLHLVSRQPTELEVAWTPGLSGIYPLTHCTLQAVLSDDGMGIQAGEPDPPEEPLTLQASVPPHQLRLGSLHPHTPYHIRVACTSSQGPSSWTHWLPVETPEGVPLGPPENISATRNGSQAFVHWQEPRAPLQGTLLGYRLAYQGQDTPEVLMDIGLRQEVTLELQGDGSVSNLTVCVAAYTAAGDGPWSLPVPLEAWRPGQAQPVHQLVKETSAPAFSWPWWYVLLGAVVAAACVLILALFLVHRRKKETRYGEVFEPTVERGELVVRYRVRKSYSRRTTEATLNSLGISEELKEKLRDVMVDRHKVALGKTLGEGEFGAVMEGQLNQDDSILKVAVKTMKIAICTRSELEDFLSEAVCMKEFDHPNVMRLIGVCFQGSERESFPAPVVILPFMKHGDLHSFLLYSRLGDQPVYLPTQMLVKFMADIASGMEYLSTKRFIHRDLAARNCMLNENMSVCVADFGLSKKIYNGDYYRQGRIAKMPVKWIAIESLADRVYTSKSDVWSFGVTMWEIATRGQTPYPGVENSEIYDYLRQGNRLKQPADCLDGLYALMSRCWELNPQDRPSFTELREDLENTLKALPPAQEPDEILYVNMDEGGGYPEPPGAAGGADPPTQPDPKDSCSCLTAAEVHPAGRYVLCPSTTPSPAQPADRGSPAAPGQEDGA

AXLECDHis = molecular target: T4, AXLECDHis (human, UniProt P30530 26-447); test: BLI (Octet), IgG on anti-human Fc sensor, AXLECDHis analyte
T4 construct: theoretical mass 46 kDa used; also called extracellular domain (ECD) of human AXL (aa 1-447) with a C-terminal His tag; soluble recombinant AXL extracellular domain

human AXL (full length) [5] = molecular target: T1, human AXL (full length); test: flow cytometry, HEK293T cells transiently transfected with human AXL

Binder	EC50 (human AXL (full length) [1]) [µg/mL]	maximal binding in presence of Gas6 (% of binding in absence of Gas6) (human AXL (full length) [1]) [%]	EC50 (human AXL (full length) [2]) [µg/mL]	Maximal binding (Arbitrary units) (human AXL (full length) [2]) [arbitrary units]	binding result [3]	EC50 [4] [µg/mL]	Kd (AXLECDHis) [nM]	koff (AXLECDHis) [s⁻¹]	kon (AXLECDHis) [M⁻¹ s⁻¹]	EC50 (read off the curve) (human AXL (full length) [5]) [µg/mL]
B1	0.2	93	0.0036	3500	binds	0.152	20	0.0044	230000	–
B2	0.55	97	0.0471	3150	binds	0.349	0.6	0.00013	240000	~0.09
B3	0.62	93	–	–	binds	0.254	63	0.0097	160000	–
B4	1.19	90	–	–	binds	0.309	10.2	0.00042	41000	~0.1

From US20180326084A1 (Genmab, published 2018)
